Results from publication PMC2632915.

How the values were obtained:
[1] = biological target: Hera_208–510 (C-terminal RecA domain, dimerization domain and RNA-binding domain of T. thermophilus Hera) (Thermus thermophilus); assay: SEC
[2] = biological target: Hera_208–419 (C-terminal RecA domain and dimerization domain of T. thermophilus Hera) (Thermus thermophilus); assay: crystal structure
[3] = biological target: Hera_208–419 (C-terminal RecA domain and dimerization domain of T. thermophilus Hera) (Thermus thermophilus); assay: SEC
[4] = biological target: Hera_208–419 (C-terminal RecA domain and dimerization domain of T. thermophilus Hera) (Thermus thermophilus); assay: SEC; remark: listed apart in the source

Substance | stoichiometry N [1] | stoichiometry N [2] | stoichiometry N [3] | stoichiometry N [4]
Hera_208–510 (C-terminal RecA domain, dimerization domain and RNA-binding domain of T. thermophilus Hera) (domain or fragment) | 2 | – | – | –
Hera_208–419 (C-terminal RecA domain and dimerization domain of T. thermophilus Hera) (domain or fragment) | – | 2 | 2 | 2
